Measurements reported in paper PMC9769727, “Glucose-6-Phosphate Dehydrogenase, ZwfA, a Dual Cofactor-Specific Isozyme Is Predominantly Involved in the Glucose Metabolism of Pseudomonas bharatica CSV86^T” (Microbiology Spectrum, 2022).
Values belong to the molecule of their own block, whether it stands above or below them.

What was measured:
[1] = target: Glucose-6-phosphate dehydrogenase ZwfA from Pseudomonas bharatica CSV86T (Pseudomonas bharatica CSV86T); experiment: SEC; ENrich SEC 650 column (CV 24 mL, Bio-Rad) in Buffer A (Tris-Cl 50 mM, pH 7.5), 4°C; native molecular weight from a semilog plot of Ve/V0 against standard proteins, compared with the subunit weight by SDS-PAGE
[2] = target: Glucose-6-phosphate dehydrogenase ZwfC from Pseudomonas bharatica CSV86T (Pseudomonas bharatica CSV86T); experiment: SEC; Superdex 200 Increase 10/300 GL column (CV 24 mL, GE Healthcare) in Buffer A (Tris-Cl 50 mM, pH 7.5), 4°C; native molecular weight from a semilog plot of Ve/V0 against standard proteins, compared with the subunit weight by SDS-PAGE
[3] = substrate: NC(=O)c1ccc[n+]([C@@H]2O[C@H](COP(=O)(O)OP(=O)(O)OC[C@H]3O[C@@H](n4cnc5c(N)ncnc54)[C@H](O)[C@@H]3O)[C@@H](O)[C@H]2O)c1; experiment: purified protein; type: biochemical, Pseudomonas bharatica; conditions: 5 mM G6P fixed, Tris-Cl 50 mM, pH 8.25, hyperbolic
[4] = substrate: NC(=O)c1ccc[n+]([C@@H]2O[C@H](COP(=O)(O)OP(=O)(O)OC[C@H]3O[C@@H](n4cnc5c(N)ncnc54)[C@H](OP(=O)(O)O)[C@@H]3O)[C@@H](O)[C@H]2O)c1; experiment: purified protein; type: biochemical, Pseudomonas bharatica; conditions: 5 mM G6P fixed, Tris-Cl 50 mM, pH 8.25, hyperbolic

stoichiometry N [1]: 4
Molecule: Glucose-6-phosphate dehydrogenase ZwfA from Pseudomonas bharatica CSV86T (enzyme)

stoichiometry N [2]: 4
Molecule: Glucose-6-phosphate dehydrogenase ZwfC from Pseudomonas bharatica CSV86T (enzyme)

B1: ZwfA (Pseudomonas bharatica CSV86) (protein)
chain: MSSISVEPCTFALFGALGDLALRKLFPALYQLDRAGLLHERTRLLALAREPGSVQEHLASIEAHLHEFVASDTLDTTVLQRFLGRLNYLHMDFLDAQAYPALAAQVTPEAPLIAYFATPAAVYGGICENLAKVGLAERTRVVLEKPIGHDLESSRRVNDAVAQFFPENRIYRIDHYLGKETVQNLIALRFANSLFETQWNQTSISHVEISVAEKVGIEGRWGYFDKAGQLRDMIQNHLLQLLCLIAMDPPSDLSADSIRDEKVKVLKALAPITGEGLGTRVVRGQYIAGHSDGRALPGYLDEENANTHSDTETFVALRADIRNWRWAGVPFYLRTGKRMPQKLSQIVIHFKEPQHYIFAAEQRLQIGNKLIIRLQPDEGISLRVMTKEQGLDKGMQLRSSPLQLNFSDGSFRSARIPDAYERLLLEVMRGNQNLFVRKDEIEYAWKWCDQLIAGWKQSGEAPRPYAAGTWGPVAAVALITRDGRSWYGDI
notes: full length, 490 aa (1473 nt), pET28a N-terminal 6xHis tag, E. coli BL21(DE3), Ni-NTA; subunit ~56 kDa, homotetramer ~217 kDa; part of zwfA-pgl-eda operon; Arg49, Leu17
Km [3]: 366 ± 70 µM | Vmax [3]: 329 ± 74 µmol/min/mg | kcat [3]: 306 ± 69 s⁻¹ | kcat/Km [3]: 860000 ± 150000 M⁻¹ s⁻¹ | Km [4]: 110.5 ± 20 µM | Vmax [4]: 201 ± 28 µmol/min/mg | kcat [4]: 187 ± 26 s⁻¹ | kcat/Km [4]: 1.7e+06 ± 300000 M⁻¹ s⁻¹
